Measurements reported in patent US20050075291.

Target: reconstituted tissue factor (Innovin, Dade) (UniProt P13726)
UniProt P13726, sequence (P13726 33-295): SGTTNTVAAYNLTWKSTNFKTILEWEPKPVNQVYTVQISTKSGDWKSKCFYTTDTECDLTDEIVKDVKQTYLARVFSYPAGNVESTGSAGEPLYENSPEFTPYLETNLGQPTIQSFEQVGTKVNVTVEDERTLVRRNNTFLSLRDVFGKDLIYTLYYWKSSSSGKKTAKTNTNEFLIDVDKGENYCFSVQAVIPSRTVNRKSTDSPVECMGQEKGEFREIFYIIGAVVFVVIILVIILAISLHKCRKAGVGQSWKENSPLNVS

| Substance | competition with active-site modified VIIa (0-3.2 nM), clotting time | competition assay (clotting time as a function of added FFR-VIIa, 0 to 3.5 nM) |
| --- | --- | --- |
| factor VII with leucine for phenylalanine at position 5 (which contained the Q11E33 mutations) | had much lower activity than the Q11E33 mutant | – |
| Human factor VIIa-T9Q11E33 | – | Human factor VIIa-T9Q11E33 exhibited a severe loss of competitive binding affinity |
